Results published in article PMC6353875 (2019).

Biological target: EZH2 SRM-SANT1 (residues 141–251) (human, UniProt Q15910 141-251)
Test: NMR

Chain of EZH2 SRM-SANT1 (residues 141–251) (Q15910 141-251): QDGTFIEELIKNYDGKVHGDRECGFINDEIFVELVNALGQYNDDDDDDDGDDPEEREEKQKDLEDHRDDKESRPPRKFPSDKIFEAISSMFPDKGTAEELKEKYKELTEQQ

Kd: > 5 mM
Binder: PEPAKSAPAPK [unmodified histone H2B peptide (residues 1–11)]
